Laboratory results taken from paper PMC10933344, “A lncRNA Dleu2-encoded peptide relieves autoimmunity by facilitating Smad3-mediated Treg induction” (EMBO Reports, 2024).
Where no end group is shown, it is not given here.

Biological target: T1, Smad3, recombinant (pET28a) (UniProt Q8BUN5 1-425)
T1 construct: the His tag is inferred from the vector only; also called free Smad3; source: bacterial overexpression (pET28a), purified
Assay: BLI; Octet RED96; 50 ug/ml Biotin-labeled Dleu2-17aa immobilised on streptavidin biosensors; 100 mM Tris-HCl pH 8.0, 20 mM MgCl2, 200 mM KCl, 0.1 mg/mL BSA; Smad3 at 1.67-53.3 uM, association 800 s, dissociation in DPBS (0.5% BSA) 180 s; RT
Conditions: both partners purified

T1 sequence (Q8BUN5 whole entry): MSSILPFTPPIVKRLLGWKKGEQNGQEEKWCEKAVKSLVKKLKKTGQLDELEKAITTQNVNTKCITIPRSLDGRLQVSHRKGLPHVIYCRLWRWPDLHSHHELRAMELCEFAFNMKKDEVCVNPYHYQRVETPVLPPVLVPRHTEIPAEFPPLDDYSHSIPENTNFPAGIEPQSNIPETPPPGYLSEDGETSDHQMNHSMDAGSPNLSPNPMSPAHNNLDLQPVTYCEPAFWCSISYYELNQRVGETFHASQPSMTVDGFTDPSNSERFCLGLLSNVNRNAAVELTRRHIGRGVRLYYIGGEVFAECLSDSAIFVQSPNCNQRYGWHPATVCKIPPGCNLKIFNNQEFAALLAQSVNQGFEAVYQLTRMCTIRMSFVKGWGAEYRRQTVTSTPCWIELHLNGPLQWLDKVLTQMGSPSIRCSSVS

Kd: 2430 nM
B1: Biotin-labeled Dleu2-17aa (peptide)
peptide: MLGRRARRRGRGRRRPA
modifications: also: biotin-labeled, position not given here
notes: Dleu2-17aa, 17-amino-acid micropeptide encoded by a short ORF in the first exon of the mouse lncRNA Dleu2; also called Biotin-Dleu2-17aa; biotinylated Dleu2-17aa
